Results reported in PMC6613885 (Autophagy, 2019).
Ends that are not written are not given here.

T1: biotin-labeled 16-mer BECN1 S2E LIR peptide (human, also: biotin label, place not given here)
T1 chain: STEEANEFTLIGEASD

T2: biotin-labeled 16-mer PIK3C3 S2E LIR peptide (human, also: biotin label, place not given here)
T2 chain: SEPILTEFELVKVPDP

B1: PIK3C3 242-259 18-mer array peptide, E251L (peptide)
peptide: ESSPILTSFLLVKVPDPQ
notes: PIK3C3, human, amino acids 242-259; source: synthetic peptide, SPOT synthesis on cellulose membrane
B2: PIK3C3 242-259 18-mer array peptide, E251I (peptide)
peptide: ESSPILTSFILVKVPDPQ
notes: as for B1
B3: BECN1 89-106 18-mer array peptide, S96T (peptide)
peptide: MSTESANTFTLIGEASDG
notes: BECN1, human, amino acids 89-106; source: synthetic peptide, SPOT synthesis on cellulose membrane
B4: BECN1 89-106 18-mer array peptide, S96D (peptide)
peptide: MSTESANDFTLIGEASDG
notes: as for B3
B5: BECN1 89-106 18-mer array peptide, I100L (peptide)
peptide: MSTESANSFTLLGEASDG
notes: as for B3
B6: BECN1 89-106 18-mer array peptide, wild type (peptide)
peptide: MSTESANSFTLIGEASDG
notes: BECN1, human, amino acids 89-106; also called BECN1 LIR; source: synthetic peptide, SPOT synthesis on cellulose membrane
B7: PIK3C3 242-259 18-mer array peptide, L252W (peptide)
peptide: ESSPILTSFEWVKVPDPQ
notes: as for B1
B8: PIK3C3 242-259 18-mer array peptide, E251F (peptide)
peptide: ESSPILTSFFLVKVPDPQ
notes: as for B1
B9: ATG14 428-445 18-mer array peptide, L438F (peptide)
peptide: ETDLGTDWENFPSPRFCD
notes: ATG14, human, amino acids 428-445; source: synthetic peptide, SPOT synthesis on cellulose membrane
B10: BECN1 89-106 18-mer array peptide, S96A (peptide)
peptide: MSTESANAFTLIGEASDG
notes: as for B3
B11: BECN1 89-106 18-mer array peptide, T98C (peptide)
peptide: MSTESANSFCLIGEASDG
notes: as for B3
B12: BECN1 89-106 18-mer array peptide, L99I (peptide)
peptide: MSTESANSFTIIGEASDG
notes: as for B3
B13: ATG14 428-445 18-mer array peptide, wild type (peptide)
peptide: ETDLGTDWENLPSPRFCD
notes: ATG14, human, amino acids 428-445; also called ATG14 LIR; source: synthetic peptide, SPOT synthesis on cellulose membrane
B14: ATG14 428-445 18-mer array peptide, E436V (peptide)
peptide: ETDLGTDWVNLPSPRFCD
notes: as for B9
B15: PIK3C3 242-259 18-mer array peptide, wild type (peptide)
peptide: ESSPILTSFELVKVPDPQ
notes: PIK3C3, human, amino acids 242-259; also called PIK3C3 LIR; source: synthetic peptide, SPOT synthesis on cellulose membrane
B16: PIK3C3 242-259 18-mer array peptide, L252I (peptide)
peptide: ESSPILTSFEIVKVPDPQ
notes: as for B1
B17: BECN1 89-106 18-mer array peptide, F97W (peptide)
peptide: MSTESANSWTLIGEASDG
notes: as for B3
B18: PIK3C3 242-259 18-mer array peptide, F250W (peptide)
peptide: ESSPILTSWELVKVPDPQ
notes: as for B1
B19: BECN1 89-106 18-mer array peptide, S96G (peptide)
peptide: MSTESANGFTLIGEASDG
notes: as for B3
B20: PIK3C3 242-259 18-mer array peptide, L252F (peptide)
peptide: ESSPILTSFEFVKVPDPQ
notes: as for B1
B21: ATG14 428-445 18-mer array peptide, W435F (peptide)
peptide: ETDLGTDFENLPSPRFCD
notes: as for B9
B22: BECN1 89-106 18-mer array peptide, T98E (peptide)
peptide: MSTESANSFELIGEASDG
notes: as for B3
B23: BECN1 89-106 18-mer array peptide, S96E (peptide)
peptide: MSTESANEFTLIGEASDG
notes: as for B3
B24: BECN1 89-106 18-mer array peptide, S96C (peptide)
peptide: MSTESANCFTLIGEASDG
notes: as for B3
B25: PIK3C3 242-259 18-mer array peptide, L252V (peptide)
peptide: ESSPILTSFEVVKVPDPQ
notes: as for B1
B26: BECN1 89-106 18-mer array peptide, S96W (peptide)
peptide: MSTESANWFTLIGEASDG
notes: as for B3
B27: PIK3C3 242-259 18-mer array peptide, V253I (peptide)
peptide: ESSPILTSFELIKVPDPQ
notes: as for B1
B28: BECN1 89-106 18-mer array peptide, G101E (peptide)
peptide: MSTESANSFTLIEEASDG
notes: as for B3
B29: ATG14 428-445 18-mer array peptide, W435Y (peptide)
peptide: ETDLGTDYENLPSPRFCD
notes: as for B9
B30: PIK3C3 242-259 18-mer array peptide, E251V (peptide)
peptide: ESSPILTSFVLVKVPDPQ
notes: as for B1
B31: BECN1 89-106 18-mer array peptide, T98I (peptide)
peptide: MSTESANSFILIGEASDG
notes: as for B3
B32: PIK3C3 242-259 18-mer array peptide, L252Y (peptide)
peptide: ESSPILTSFEYVKVPDPQ
notes: as for B1
B33: BECN1 89-106 18-mer array peptide, G101P (peptide)
peptide: MSTESANSFTLIPEASDG
notes: as for B3
B34: ATG14 428-445 18-mer array peptide, D434E (peptide)
peptide: ETDLGTEWENLPSPRFCD
notes: as for B9
B35: BECN1 89-106 18-mer array peptide, L99W (peptide)
peptide: MSTESANSFTWIGEASDG
notes: as for B3
B36: BECN1 89-106 18-mer array peptide, L99F (peptide)
peptide: MSTESANSFTFIGEASDG
notes: as for B3
B37: ATG14 428-445 18-mer array peptide, E436I (peptide)
peptide: ETDLGTDWINLPSPRFCD
notes: as for B9
B38: BECN1 89-106 18-mer array peptide, G101D (peptide)
peptide: MSTESANSFTLIDEASDG
notes: as for B3
B39: BECN1 89-106 18-mer array peptide, T98V (peptide)
peptide: MSTESANSFVLIGEASDG
notes: as for B3
B40: biotin-labeled 16-mer PIK3C3 LIR peptide (peptide)
chain: SSPILTSFELVKVPDP
modifications: also: biotin label, place not given here
B41: biotin-labeled 16-mer ATG14 LIR peptide (peptide)
chain: ETDLGTDWENLPSPRF
modifications: also: biotin label, place not given here
B42: biotin-labeled 16-mer BECN1 LIR peptide (peptide)
chain: STESANSFTLIGEASD
modifications: also: biotin label, place not given here
B43: recombinant GABARAP (biolayer interferometry) (natural protein, UniProt O95166 1-117, looked up)
chain: MKFVYKEEHPFEKRRSEGEKIRKKYPDRVPVIVEKAPKARIGDLDKKKYLVPSDLTVGQFYFLIRKRIHLRAEDALFFFVNNVIPPTSATMGQLYQEHHEEDFFLYIAYSDESVYGL
notes: GABARAP; construct of the BLI experiment not described; source: recombinant
B44: recombinant LC3C (biolayer interferometry) (natural protein, UniProt Q9BXW4 1-126, looked up)
chain: MPPPQKIPSVRPFKQRKSLAIRQEEVAGIRAKFPNKIPVVVERYPRETFLPPLDKTKFLVPQELTMTQFLSIIRSRMVLRATEAFYLLVNNKSLVSMSATMAEIYRDYKDEDGFVYMTYASQETFG
notes: LC3C; construct of the BLI experiment not described; source: recombinant

What follows are binders tested against T3, GST-GABARAPL1 (UniProt Q9H0R8 1-117) (assay: peptide or protein array; two-dimensional scan: 18-mer peptides on cellulose membrane, each position replaced with all 20 amino acids; probed with 1 µg/ml GST-GABARAPL1 for 2 h; anti-GST antibody). Settings: both partners purified.
T3 construct: GABARAPL1 (GABA type A receptor associated protein like 1); also called pDest15 (GST)-GABARAPL1; source: E. coli SoluBL21, purified on glutathione-Sepharose 4 Fast Flow beads
B1: binds. B2: binds. B3: binds. B4: binds. B5: binds. B6: binds. B7: binds. B8: binds. B9: binds. B10: binds. B11: binds. B12: binds. B13: binds. B14: binds. B15: binds. B16: binds. B17: binds. B18: binds. B19: binds. B20: binds. B21: binds. B22: binds. B23: binds. B24: binds. B25: binds. B26: binds. B27: binds. B28: binds. B29: binds. B30: binds. B31: binds. B32: binds. B33: binds. B34: binds. B35: binds. B36: binds. B37: binds. B38: binds. B39: binds.

Each binder was assayed against recombinant GABARAPL1 (biolayer interferometry) (UniProt Q9H0R8 1-117) (assay: BLI; biotin-LIR peptides (50 µg/ml) on streptavidin biosensors, Atg8-family protein in solution at different concentrations; Octet Red 96; 25°C; global fit, 1:1 model). Settings: both partners purified.
recombinant GABARAPL1 (biolayer interferometry), sequence (Q9H0R8 whole entry, looked up): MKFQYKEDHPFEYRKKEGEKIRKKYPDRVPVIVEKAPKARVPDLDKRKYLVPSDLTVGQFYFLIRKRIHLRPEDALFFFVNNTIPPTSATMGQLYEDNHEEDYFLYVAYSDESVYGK
Work on B40 yielded a Kd of 65 µM. B41 was tested, and the Kd was 1.9 µM. With B42 the Kd was 7.95 µM.

These binders were tested against B44 in the same assay as above. Settings: both partners purified.
B41 gave a Kd of 5.85 µM.

Biological target: T1, biotin-labeled 16-mer BECN1 S2E LIR …
Assay: as above
Settings: both partners purified
B43 was tested, and the “fold increase in binding affinity over the wild-type LIR peptide” value was 3 fold. With B44 the “fold increase in binding affinity over the wild-type LIR peptide” value was 8 fold.

The binders below were run against B43 in the same assay as above. Settings: both partners purified.
With B40 the Kd was 49.5 µM. In the case of B41, the Kd is reported as 2.85 µM. For B42, the Kd was 10.5 µM.

Biological target: T2, biotin-labeled 16-mer PIK3C3 S2E LIR …
Assay: as above
Settings: both partners purified
For B43, the “fold increase in binding over the wild-type LIR peptide” value was 17 fold. In the case of B44, the “fold increase in binding over the wild-type LIR peptide” value is reported as 15 fold.
